Experimental data reported in patent EP2292266A1 (Novartis Forschungsstiftung, Zweigniederlassung, dated 2011).

Experiments:
[1] = target: T1, ErbB2 (human, UniProt P04626 23-1255, tyrosine-phosphorylated (active) receptor after HRG stimulation; sites not resolved in the IP and FRET experiments); experiment: ErbB2 immunoprecipitation from SKBr3 and T47D cells
T1 construct: whole, on cells; Endogenous receptor, tested in fixed cells (FRET) and in cell lysates (co-IP); also called HER2

[2] = target: RACK1, receptor of activated C kinase (human, UniProt P63244 1-317); experiment: Copine-III IP from SKBr3 lysates, relative quantification by MRM mass spectrometry

B1: Copine III (other)
chain: MAAQCVTKVALNVSCANLLDKDIGSKSDPLCVLFLNTSGQQWYEVERTERIKNCLNPQFSKTFIIDYYFEVVQKLKFGVYDIDNKTIELSDDDFLGECECTLGQIVSSKKLTRPLVMKTGRPAGKGSITISAEEIKDNRVVLFEMEARKLDNKDLFGKSDPYLEFHKQTSDGNWLMVHRTEVVKNNLNPVWRPFKISLNSLCYGDMDKTIKVECYDYDNDGSHDLIGTFQTTMTKLKEASRSSPVEFECINEKKRQKKKSYKNSGVISVKQCEITVECTFLDYIMGGCQLNFTVGVDFTGSNGDPRSPDSLHYISPNGVNEYLTALWSVGLVIQDYDADKMFPAFGFGAQIPPQWQVSHEFPMNFNPSNPYCNGIQGIVEAYRSCLPQIKLYGPTNFSPIINHVARFAAAATQQQTASQYFVLLIITDGVITDLDETRQAIVNASRLPMSIIIVGVGGADFSAMEFLDGDGGSLRSPLGEVAIRDIVQFVPFRQFQNAPKEALAQCVLAEIPQQVVGYFNTYKLLPPKNPATKQQKQ
notes: Endogenous protein of the human breast tumor cell lines T47D and SKBr3, tested in cell lysates (pull-down, IP) or in fixed cells (FRET); also called CPNE3; CPN3
[1]
  binding result: binds
[2]
  fold enrichment in Copine-III IPs vs. control IPs: 1.5 fold
